In the supplement of paper PMC10567573:

B1: DLC1 (parent)
chain: NDDSADYQHFLQDCVDGLFKEVKE
B2: DCAF4 (parent)
chain: PGIDRPGMLCSFRIPGAWSCAWSL

Variants of: B1
Experiment: protein stability index of a GFP-peptide fusion (GPS, HEK-293T) (PSI 1-6); higher = more stable
Settings: c terminus: a fixed tail appended
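Also: lentivirally expressed fusions sorted by FACS into six bins by GFP to DsRed ratio, PSI derived from sequencing read proportions per bin multiplied by bin number.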

Row | Variant | protein stability index
1 | F10Y | 2.75
2 | F10C | 2.66
3 | F10W | 1.98
4 | F10I | 1.78
5 | F10M | 2.34
6 | F10E | 3.75
7 | F10P | 4.36
8 | F10R | 3.96
9 | F10L | 1.62
10 | F10A | 2.08
11 | F10Q | 3.16
12 | F10H | 4.34
13 | F10G | 4.53
14 | F10N | 4.56
15 | F10V | 1.42
16 | V15E | 4.9
17 | V15F | 3.85
18 | V15T | 5.09
19 | V15C | 4.79
20 | V15P | 4.6
21 | V15A | 4.04
22 | V15I | 2.68
23 | V15K | 4.71
24 | Y7E | 4.11
25 | Y7N | 5.14
26 | Y7C | 2.55

Row | Variant | protein stability index
27 | Y7R | 4.1
28 | Y7F | 2.05
29 | Y7L | 3.03
30 | Y7G | 4.01
31 | Y7S | 3.89
32 | Y7K | 4.33
33 | Y7Q | 4.52
34 | Y7D | 4.17
35 | Y7T | 3.31
36 | Y7V | 3
37 | Y7A | 3.78
38 | A5V | 2.02
39 | A5Y | 2.17
40 | A5R | 2.49
41 | A5N | 2.9
42 | A5P | 2.4
43 | A5F | 1.68
44 | A5M | 2.15
45 | A5T | 2.46
46 | A5C | 2.05
47 | A5H | 2.55
48 | A5I | 2.05
49 | A5G | 2.4
50 | A5S | 1.91
51 | A5W | 2.1
52 | A5Q | 2.55

Row | Variant | protein stability index
53 | A5D | 2.42
54 | D16N | 2.81
55 | D16E | 2.08
56 | D16S | 3.22
57 | D16M | 2.81
58 | D16A | 2.08
59 | D16H | 3.44
60 | D16Q | 2.31
61 | D16W | 1.8
62 | D16K | 2.56
63 | D16L | 2.12
64 | D16Y | 2.21
65 | D16I | 1.49
66 | F19C | 3.38
67 | F19S | 5.67
68 | F19P | 5.17
69 | F19G | 5.54
70 | F19V | 2.89
71 | F19T | 5.45
72 | F19D | 5.61
73 | F19Y | 2.94
74 | F19M | 3.72
75 | F19I | 2.72
76 | F19A | 5.02
77 | F19R | 4.46
78 | D6T | 2.5

Row | Variant | protein stability index
79 | D6W | 2.52
80 | D6N | 2.4
81 | D6I | 2.32
82 | D6A | 2.32
83 | D6Q | 3.12
84 | D6H | 3.3
85 | D6E | 3.29
86 | D6V | 2.24
87 | D6P | 3.38
88 | D6R | 2.94
89 | D6G | 3.62
90 | D6Y | 2.94
91 | D6F | 2.81
92 | D6M | 2.63
93 | Q12D | 4.83
94 | Q12V | 3.33
95 | Q12N | 4.24
96 | Q12H | 3.17
97 | Q12W | 1.79
98 | Q12T | 4.32
99 | Q12E | 4.75
100 | Q12K | 2.33
101 | Q12C | 3.91
102 | Q12G | 4.34
103 | Q12M | 3.73
104 | Q12F | 3.48

Row | Variant | protein stability index
105 | Q12L | 3.31
106 | Q12S | 3.3
107 | Q12Y | 3.71
108 | Q12I | 3
109 | N1G | 1.9
110 | N1T | 2.6
111 | N1D | 1.72
112 | N1W | 1.28
113 | N1C | 2.24
114 | N1E | 3
115 | N1Q | 2.69
116 | N1F | 1.5
117 | N1V | 1.56
118 | N1M | 1.79
119 | N1Y | 2.73
120 | N1S | 2.6
121 | N1R | 2.53
122 | D3H | 2.17
123 | D3G | 2.23
124 | D3C | 1.71
125 | D3R | 1.79
126 | D3W | 1.71
127 | D3E | 3.85
128 | D3Y | 2.24
129 | D3V | 3.69
130 | D3P | 2.65

Row | Variant | protein stability index
131 | D3M | 2.26
132 | D3A | 2.77
133 | D3N | 3.02
134 | Q8R | 2.08
135 | Q8A | 2.4
136 | Q8T | 2.44
137 | Q8V | 2.93
138 | Q8W | 3.5
139 | Q8S | 2.88
140 | Q8I | 2.26
141 | Q8C | 1.69
142 | Q8L | 1.77
143 | Q8G | 2.75
144 | Q8H | 2.36
145 | Q8N | 3.03
146 | E24T | 2.81
147 | E24P | 4.54
148 | E24Y | 1.66
149 | E24N | 2.5
150 | E24I | 2.1
151 | E24V | 2.69
152 | E24L | 2.36
153 | E24G | 3.66
154 | E24F | 2.11
155 | E24M | 2.3
156 | E24C | 2.33

Row | Variant | protein stability index
157 | E24S | 1.91
158 | E24D | 2.33
159 | E24H | 1.88
160 | E24K | 2.2
161 | E24A | 2.17
162 | E24W | 1.67
163 | K20E | 3.55
164 | K20Y | 2.88
165 | K20G | 3.84
166 | K20D | 5.24
167 | K20H | 3.45
168 | K20M | 2.68
169 | K20I | 3.05
170 | K20C | 3.38
171 | K20T | 4
172 | K20F | 2.93
173 | K20Q | 3.23
174 | K20W | 2.95
175 | K20R | 2.51
176 | K20N | 3.08
177 | K20P | 4.86
178 | K20V | 3.56
179 | G17N | 2.39
180 | G17S | 2.58
181 | G17A | 3.68
182 | G17P | 4.92

Row | Variant | protein stability index
183 | G17M | 2.18
184 | G17F | 2.12
185 | G17C | 1.71
186 | G17Y | 2.44
187 | G17R | 2.01
188 | G17V | 2.16
189 | G17E | 2.41
190 | G17W | 2.43
191 | G17T | 2.21
192 | G17K | 2.73
193 | G17I | 2.19
194 | E21Q | 2.74
195 | E21V | 1.83
196 | E21I | 3.01
197 | E21G | 3.51
198 | E21P | 3.94
199 | E21K | 2.57
200 | E21A | 2.29
201 | E21T | 1.98
202 | E21F | 2.51
203 | E21N | 3.81
204 | E21D | 4.67
205 | E21W | 2.28
206 | E21R | 2.55
207 | E21S | 3.27
208 | S4D | 2.9

Row | Variant | protein stability index
209 | S4K | 1.36
210 | S4A | 2.35
211 | S4V | 2.57
212 | S4E | 1.63
213 | S4H | 2.65
214 | S4Y | 2.22
215 | S4L | 2.91
216 | S4F | 2.26
217 | S4W | 2.26
218 | S4G | 3.56
219 | K23G | 4.37
220 | K23W | 2.66
221 | K23Y | 2.35
222 | K23T | 1.65
223 | K23A | 2.56
224 | K23R | 2.57
225 | K23N | 3.37
226 | K23I | 1.9
227 | K23L | 2.06
228 | K23E | 3.72
229 | K23S | 3.09
230 | K23Q | 2.75
231 | D13A | 1.79
232 | D13L | 1.76
233 | D13G | 2.42
234 | D13C | 2.09

Row | Variant | protein stability index
235 | D13V | 1.56
236 | D13K | 2.05
237 | D13Y | 2.14
238 | D13E | 2.66
239 | D13Q | 2.24
240 | D13I | 1.84
241 | D13S | 2.2
242 | D13H | 1.51
243 | D13R | 2.02
244 | D13P | 2.27
245 | D13N | 2.38
246 | D13T | 2.16
247 | D13F | 1.86
248 | C14Y | 2.54
249 | C14V | 3.21
250 | C14P | 5.07
251 | C14F | 2.49
252 | C14Q | 4.71
253 | C14S | 4.91
254 | C14T | 4.12
255 | C14K | 4.78
256 | C14N | 5.34
257 | C14L | 1.97
258 | C14G | 4.86
259 | C14E | 5.38
260 | C14H | 5.11

Row | Variant | protein stability index
261 | L11K | 5.08
262 | L11P | 4.51
263 | L11G | 5.35
264 | L11W | 3.78
265 | L11R | 5.35
266 | L11V | 4.18
267 | L11E | 5.25
268 | L11D | 5.47
269 | L11Y | 4.47
270 | L11H | 5.08
271 | L11A | 5.62
272 | L11Q | 5.4
273 | L11S | 5.1
274 | L11N | 4.76
275 | L11M | 3.29
276 | L11T | 4.94
277 | L18P | 4.93
278 | L18R | 4.58
279 | L18A | 5.02
280 | L18N | 5.43
281 | L18I | 3.73
282 | L18D | 5.73
283 | L18H | 5.37
284 | L18Y | 3.71
285 | L18K | 5.3
286 | L18T | 4.96

Row | Variant | protein stability index
287 | L18V | 4.53
288 | L18E | 5.3
289 | L18F | 3.33
290 | V22N | 5.27
291 | V22T | 4.87
292 | V22S | 5.4
293 | V22K | 5.5
294 | V22C | 4.3
295 | V22Y | 4.05
296 | V22F | 3.84
297 | V22G | 5.01
298 | V22D | 5.46
299 | V22E | 5.42
300 | V22Q | 4.37
301 | V22I | 2.58
302 | V22P | 4.26
303 | V22A | 4.42
304 | D2F | 2.47
305 | D2L | 2.37
306 | D2T | 2.65
307 | D2C | 2.14
308 | D2K | 2.11
309 | D2Y | 1.2
310 | D2W | 2.15
311 | D2G | 4.54
312 | D2H | 2.66

Row | Variant | protein stability index
313 | D2N | 2.27
314 | D2A | 2.17
315 | D2I | 2.18
316 | D2Q | 2.91
317 | H9Q | 2.23
318 | H9V | 1.92
319 | H9D | 2.83
320 | H9K | 2.63
321 | H9G | 2.62
322 | H9L | 2.21
323 | H9R | 2.86
324 | H9F | 2.32
325 | H9P | 3.71
326 | H9M | 2.74
327 | H9A | 3.13
328 | H9W | 3.03

Variants of: B2
Experiment: as above
Settings: c terminus: a fixed tail appended

Row | Variant | protein stability index
329 | P1A | 1.93
330 | P1H | 2.96
331 | P1K | 1.96
332 | P1D | 2.31
333 | P1G | 3.67
334 | P1C | 2.36
